From patent US20130196923A1, “NOVEL PEPTIDES WHICH HAVE ANALGESIC EFFECTS AND WHICH INHIBIT ASIC CHANNELS” (CENTRE NATIONAL DE LA RESERCHE SCIENTIFIQUE-CNRS, published 2013)
Where a chain is given by its changes, count along the chain named. Like-named read-outs stand apart in the source and are kept apart here.

B1: ASICalgin-2 (π-Dp2) (peptide)
peptide: LKCFQHGKVVTCHRDMKFCYHNTGMPFRNLKLILQGCSSSCSETENNKCCSTDRCNK
B2: ASICalgin-1 (π-Dp1) (peptide)
peptide: B1 peptide with F4Y

How the values were obtained:
[1] = biological target: rat homomeric ASIC1b channel (rat) (UniProt P55926)
[2] = biological target: human homomeric ASIC1a channel (human, UniProt P78348); assay: cell-based or functional assay
[3] = biological target: rat homomeric ASIC1a channel (rat, UniProt P55926); assay: cell-based or functional assay
[4] = biological target: human heteromeric ASIC1a+ASIC2a channel (human, UniProt P78348); assay: cell-based or functional assay
[5] = biological target: rat heteromeric ASIC1a+ASIC2a channel (rat, UniProt P55926); assay: cell-based or functional assay
[6] = biological target: rat heteromeric ASIC1a+ASIC1b channel (rat, UniProt P55926); assay: cell-based or functional assay
[7] = biological target: rat homomeric ASIC1b channel (rat) (UniProt P55926); remark: listed apart in the source

Row | Molecule | inhibition of the acid-evoked ASIC current, patch clamp whole cell, COS cells [1] | inhibition of the acid-evoked ASIC current, patch clamp whole cell, COS cells [2] | inhibition of the acid-evoked ASIC current, patch clamp whole cell, COS cells [3] | inhibition of the acid-evoked ASIC current, patch clamp whole cell, COS cells [4] | inhibition of the acid-evoked ASIC current, patch clamp whole cell, COS cells [5] | inhibition of the acid-evoked ASIC current, patch clamp whole cell, COS cells [6] | inhibition of the acid-evoked ASIC current, patch clamp whole cell, COS cells [7]
1 | ASICalgin-1 (π-Dp1) (peptide) | 650 nM | – | – | – | – | – | –
2 | B1 | – | 127 nM | 49 nM | 308 nM | 308 nM | 223 nM | 650 nM
3 | B2 | – | 127 nM | 49 nM | 308 nM | 308 nM | 223 nM | –
